Experimental data from the domain aggregation screens of Martell et al. (2025).

experiment: soluble fraction after stress (log2 fold change); higher = more stays soluble; pooled small domains, quantitative proteomics; details: stress: pH 4
Summary of the method: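 Pooled custom libraries of small protein domains were stressed at pH 4 and then measured by high-throughput quantitative proteomics. The fold change in the amount of each domain that stays soluble after the acid stress serves as a measure of aggregation propensity. Fold changes are given on a log2 scale, and higher values mean more of the domain stayed soluble.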

| Sequence | soluble fraction (log2) |
| --- | --- |
| HMSVALSENIKTRRKALKMSQEYVAEQLDISRQAVAKWEAGKSEPTTENLVKLAALFEMSVSELVE | 0.35 |
| HMDGPGDRLLIAIQENSMTQKKFAQLIGMSPNGLNSIIKGKKRLSRVLAIATERLTGVRADWILQNEQPK | -0.244 |
| HMQSSDQTDNIYENAVSIVLETGKASASHLQRVLGIDYNLAAHLIDKMEDGGLLSPPNYLGHRDVYGYT | -1.06 |
| HMTGKTTLEYLNPLLERGIPVWDYLAKASGKAKEEVQEMVSKGLVPGAEAAKAIADYMGAEFAGSMA | -0.343 |
| HMMNNKEIGTRIAVLRKGMGDSQAKLAERLDVSPQAVSKWETGQSLPDIGNLLKLSWLFRTSINHILEGS | -0.384 |
| HMAVSTFGRITASSLNVRSGPSTDHEKVGSLAAGRVVELLEESDGWYRIENGYISTEYVTIVDPSQ | -1.33 |
| HMVDPRLRSLTPQERRILEHIAEGLTNRQIAEDMFLAEKTVKNYVTSILDKLGMDSRTQAAVYAATHPT | -0.438 |
| HMLDLSEEEQKIVSILEKQGNLQINSLVVEADIPVHKINAILFELEMKGVVRVLALSLIHISEP | -0.628 |
| HMTELIEDYVELIGDLIRHRGEARAADIANRMAVSQATVSKMIRRLNELGLVTSKPYRSLFLTDEGQKMAE | -0.469 |
| HMSLPKIVVPTDVTVSQLAKYLEVDAISIIKQLFGMGVVASLNQRLEDEIIQLIGNEFGKEIIFSE | -0.107 |
| HMSDSLVLTGVAYVDGKPVVTLFDKVKKESLVVTDQPNLKGWTLVEATQSSDIKRATAKVNIGGEPVSIRY | -0.162 |
| HMEPMNMYSSIKKVIGVVSGKGGVGKSLVTASLARMMRAKGYHVGIMDADITGPSIPKMYGLHEMA | 0.0444 |
| HMGVMTGAEFVGNTVASVERNLIIDTLKHTMGNRTTAANILGISIRTLRNKLKQYQNEGFDIPE | 0.185 |
| HMDAINYEDFQLLIKQRGSFKVAFEDIMFSTKVAIEKKEDFYDFVTKLIDNGFNNMAYNYLEGFQD | -2.34 |
| HMHKIRRQTKITKSLLDQIEGIGSSRKKALLNHFGSAKAVGEAGETDLGTVKGISNSLAKKIYDFFHAT | 0.281 |
| HMITDSSEIEAMVDALVKENPGQAEQYKDGNMKVAGWFIGQIMKVSKGKANPQLVGDLLKKKLG | ≥ 0.43 |
| HMGKVNTRNRNEGKFYKNGKKKPANWEYRFEAAPVNGKRQQISDAGYPTEKAAYEAGIAAYEKYNSAGSVN | 0.0128 |
| HMIEYILDYLANRGVYAASQGEQQQMEDGIARYLQENGLEDGNTGAYYQKYVSNHLQQISASDLKAYFLN | -1.49 |
| HMQARDQNVDEGKALLEKEFSRLALENLDRDKLANAVNYPTRDDMYAAIGAGDLRVGQVLHQAQQLF | -0.323 |

| Sequence | soluble fraction (log2) |
| --- | --- |
| HMELMKPPGYWQSLENAIYESKKVIKEHGFDTLPSSNKLRELDYHGLSRAISVHHSGFPNFREIMNQELGI | -0.0528 |
| HMEDDRLIQNLLLTAKNLVMDVGRMDESALAENEDTVRTAMLFALGYLYENRSNPDYHKLTLNLRSILFA | -0.807 |
| HMERLKRVTLSLNQSNYSVTEIARRLQAITGIKDITVVEDEQAVYLKVDPATFDLTLAQQAV | -0.653 |
| HMSVFGMEIGKTTEAEAGRMYRLNKEQLNPYSGGYQYSVNPKAIDFSGLEQVTLIFDEKKVLVYVQAV | -0.179 |
| HMQPMIQIHTLANHAPVALHIKRNTQRNIIIRARDASSLNLSIPKWFSPAQLQNWLRDNEATLIRILQQAP | -0.256 |
| HMSALAQDGDLVQLQGAGYKSHILRLKAGEVLQTHRGVIQHDAVIGQPWGARLQSHTGSPFYLFQPGLADL | -0.187 |
| HMSKEDDSLVVTFRRMLLEEVDLHELSRIDANQRRARLERVIAHLVSREGVILSASERNQLVRRVVDEAV | -0.801 |
| HMTLSHAINRLRLNANMSQEQFAGLFHVSQQSVQKWESGDSVPELSKLIAIAKHFGISLDALILGN | 0.0336 |
| HMEHAETDTRERILVVAERLFRQLGYQKTTVADIAKELRMSPANVYRFFDSKKSIHEGVARTL | 0.275 |
| HMKNQIGFKIKNARRKASISQADLSAKLGISSSYLNLIESGKRNVNVDLLLKVSDVLNIELKDLSK | -0.437 |
| HMKFGEQIKERRQELDLTQAEVAEKLFVTRQAVSNWEHNKTYPDLNMLVKISNVYQISLDSLLR | -0.0339 |
| HMEIPMRDKLKTYIDYLFAGAPQTAATAETKAEILQNTLDKYDDLIAEGKTPEAAYSLAVSGIGDLGDF | -0.339 |
| HMTKAEVLLDLQQRIISEEFLPGSWLVERDLSSEYGLSRTPIREILNKLVILGLISVQKNRGYQVR | -0.792 |
| HMDVTDRLARRLQGLRSAQGLSLDALAARSGVSRSNISLIERGQSSPTATVLDKLSAALGVTLAALFEEP | 0.00664 |
| HMGKKGPELSENEKSIFSILSKSGSMDLTTLKEASGLSNKQWDKGIKGLGKHGLTKVIKTEDALLVEVV | 0.0105 |
| HMEFENIEQRKQYWSDLYRELKAGQDAYAKELKKGTEGYTQDELDILKEFTDEAKKQMEAAGVEATDEFAS | -0.176 |
| HMPVASNRDVNLDIGERVFVQEWAPNRTARVQYRGSPWEARLAPGAPAAAGEHRVSAVEGNWLVLEPA | -0.19 |
| HMRVSNADALIGRRGKANSDIRRGDYGWVAIDGDVWKSKLADDITEDIPMGAIVEVLSRDSIILTVKP | -1.08 |
| HMKTSTGSAMYLTLDLAEKYAGQAFTLVHKKADGTFEYLYATADVDGKVKFGPVYELSPFMLVKGQL | -0.674 |
